Assay results taken from the supplement of paper PMC10598134.
± gives the standard deviation.

Assay: collision cross section of modified peptide (TIMS, N2, iRT-aligned); higher = larger / more extended gas-phase ion
Summary of the method: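 Synthetic peptide pools (~100 fmol/µL in 2% acetonitrile/0.1% formic acid, iRT standard spiked 1:40) were separated on a 120-min nanoflow C18 gradient at 60 °C. They were analysed on a timsTOF Pro/HT (dda-PASEF, nitrogen, ~2.4 mbar) and identified with MaxQuant. 1/K0 was calibrated with three reference ions and aligned run-wise to the median iRT peptide deviation. Collision cross section came from the Mason-Schamp equation, averaging 1–3 technical replicates of the most abundant feature per charge state.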

[1] = charge state: 2, modification: Succinyl
[2] = charge state: 3, modification: Succinyl
[3] = charge state: 2, modification: Trimethyl (K)
[4] = charge state: 3, modification: Trimethyl (K)
[5] = charge state: 3, modification: Dimethyl (K)
[6] = charge state: 2, modification: Methyl (K)
[7] = charge state: 3, modification: Methyl (K)
[8] = charge state: 2, modification: Glutarylation
[9] = charge state: 3, modification: Glutarylation
[10] = charge state: 2, modification: Crotonyl
[11] = charge state: 3, modification: Crotonyl
[12] = charge state: 2, modification: hydroxyisobutyryl
[13] = charge state: 3, modification: hydroxyisobutyryl
[14] = charge state: 2, modification: Acetyl (K)
[15] = charge state: 3, modification: Acetyl (K)
[16] = charge state: 3, modification: HexNAc (ST)
[17] = charge state: 2, modification: HexNAc (ST)
[18] = charge state: 2, modification: Phospho (Y)
[19] = charge state: 2, modification: GlyGly (K)
[20] = charge state: 3, modification: GlyGly (K)
[21] = charge state: 3, modification: Citrullination (R)
[22] = charge state: 2, modification: Butyryl
[23] = charge state: 2, modification: Biotin

Sequence: AAQASDLEKIHLDEK [_AAQASDLEK(Succinyl)IHLDEK_]
- collision cross section [1]: 468.29 ± 1.1 Å²
- collision cross section [2]: 505.3 ± 1.6 Å²

Sequence: DVNAAIAAIKTK [_DVNAAIAAIK(Trimethyl (K))TK_]
- collision cross section [3]: 402.42 ± 1.1 Å²
- collision cross section [4]: 465.71 ± 2.2 Å²

Sequence: VGTASVLQPVKK [_VGTASVLQPVK(Dimethyl (K))K_]
- collision cross section (charge state: 2, modification: Dimethyl (K)): 391.72 ± 3 Å²
- collision cross section [5]: 440.56 ± 1.6 Å²

Sequence: SNEEGSEEKGPEVR [_SNEEGSEEK(Methyl (K))GPEVR_]
- collision cross section [6]: 394.85 ± 7.3 Å²
- collision cross section [7]: 481.38 ± 2.6 Å²

Sequence: IVFSGNLFQHQEDSKK [_IVFSGNLFQHQEDSK(Gluratylation)K_]
- collision cross section [8]: 499.16 ± 1.4 Å²
- collision cross section [9]: 531.31 ± 9.1 Å²

Sequence: TQDQISNIKYHEEFEK [_TQDQISNIK(Dimethyl (K))YHEEFEK_]
- collision cross section [5]: 542.8 ± 0.41 Å²

Sequence: TLDEILQEKK [_TLDEILQEK(Succinyl)K_]
- collision cross section [1]: 382.2 ± 5.9 Å²

Sequence: SGKFTQQDIDEAK [_SGK(Propionyl)FTQQDIDEAK_]
- collision cross section (charge state: 2, modification: Propionyl): 414.71 ± 0.97 Å²

Sequence: HELQANCYEEVKDR [_HELQANCYEEVK(Methyl (K))DR_]
- collision cross section [6]: 444.71 Å²
- collision cross section [7]: 527.11 ± 0.72 Å²

Sequence: VDIDVPDVNIEGPDAKLK [_VDIDVPDVNIEGPDAK(Succinyl)LK_]
- collision cross section [1]: 479.51 ± 1 Å²
- collision cross section [2]: 508.07 ± 2 Å²

Sequence: ITESVAETAQTIKK [_ITESVAETAQTIK(Crotonyl)K_]
- collision cross section [10]: 424.18 ± 0.81 Å²
- collision cross section [11]: 514.18 ± 1.1 Å²

Sequence: VGTASVLQPVKK [_VGTASVLQPVK(hydroxyisobutyryl)K_]
- collision cross section [12]: 388.32 ± 0.29 Å²
- collision cross section [13]: 413.48 ± 1.6 Å²

Sequence: SLKLNTAEDAK [_SLK(Crotonyl)LNTAEDAK_]
- collision cross section [10]: 378.17 ± 0.26 Å²

Sequence: SSFAYKDQNENR [_SSFAYK(Acetyl (K))DQNENR_]
- collision cross section [14]: 398.41 ± 1.4 Å²
- collision cross section [15]: 457.8 ± 0.27 Å²

Sequence: DYSAPVNFISAGLKK [_DYSAPVNFISAGLK(Succinyl)K_]
- collision cross section [1]: 438.82 ± 0.97 Å²
- collision cross section [2]: 533.85 ± 1.6 Å²

Sequence: NLVTGDHIPTPQDLPQR [_NLVT(HexNAc (ST))GDHIPTPQDLPQR_]
- collision cross section [16]: 500.97 Å²

Sequence: THLGEALAPLSK [_THLGEALAPLS(HexNAc (ST))K_]
- collision cross section [17]: 397.68 ± 0.13 Å²
- collision cross section [16]: 475.05 ± 25 Å²

Sequence: YEQEHAAIQDKLFQVAK [_YEQEHAAIQDK(Biotin)LFQVAK_]
- collision cross section (charge state: 3, modification: Biotin): 538 ± 1.6 Å²

Sequence: GQDSTIAASEQQVAAR [_GQDS(HexNAc (ST))TIAASEQQVAAR_]
- collision cross section [17]: 438.46 ± 0.56 Å²
- collision cross section [16]: 532.78 ± 0.19 Å²

Sequence: DYQPGITFIVVQKR [_DYQP(Hydroxyproline)GITFIVVQKR_]
- collision cross section (charge state: 2, modification: Hydroxyproline): 449.25 ± 1.9 Å²
- collision cross section (charge state: 3, modification: Hydroxyproline): 517.44 ± 1.2 Å²

Sequence: ATVASSTQKFQDLGVK [_ATVASSTQK(Trimethyl (K))FQDLGVK_]
- collision cross section [3]: 475.64 ± 1.1 Å²
- collision cross section [4]: 477.04 ± 1.8 Å²

Sequence: VPTTEKPTVTVNFR [_VPTTEK(Dimethyl (K))PTVTVNFR_]
- collision cross section [5]: 496.28 ± 1.7 Å²

Sequence: GVEAVGSYAENQR [_GVEAVGSY(Phospho (Y))AENQR_]
- collision cross section [18]: 388.79 ± 0.77 Å²
- collision cross section (charge state: 3, modification: Phospho (Y)): 472.71 ± 0.98 Å²

Sequence: GYDVIAQAQSGTGK [_GY(Nitro (Y))DVIAQAQSGTGK_]
- collision cross section (charge state: 2, modification: Nitro (Y)): 387.17 ± 0.17 Å²

Sequence: PLRAASPFR [_PLR(Methyl (R))AASPFR_]
- collision cross section (charge state: 2, modification: Methyl (R)): 351.73 ± 0.9 Å²
- collision cross section (charge state: 3, modification: Methyl (R)): 447.48 ± 3.2 Å²

Sequence: LDEKENLSAK [_LDEK(GlyGly (K))ENLSAK_]
- collision cross section [19]: 379.07 ± 1.5 Å²
- collision cross section [20]: 437.31 ± 1.9 Å²

Sequence: YEQEHAAIQDKLFQVAK [_YEQEHAAIQDK(Gluratylation)LFQVAK_]
- collision cross section [9]: 519.4 ± 1.2 Å²

Sequence: TPSSFRQPFTPTSR [_TPSSFR(Citrullination (R))QPFTPTSR_]
- collision cross section [21]: 499.72 Å²

Sequence: IPQEKCILQTDVK [_IPQEK(Butyryl)CILQTDVK_]
- collision cross section [22]: 436.84 ± 0.53 Å²
- collision cross section (charge state: 3, modification: Butyryl): 487.47 ± 3.3 Å²

Sequence: TLHLSHLNRFPAR [_TLHLSHLNR(Citrullination (R))FPAR_]
- collision cross section [21]: 509.04 ± 32 Å²

Sequence: DFDTALKHYDK [_DFDTALK(Crotonyl)HYDK_]
- collision cross section [10]: 412.02 ± 2.4 Å²
- collision cross section [11]: 466.35 ± 1.9 Å²

Sequence: SLKLNTAEDAK [_SLK(Acetyl (K))LNTAEDAK_]
- collision cross section [14]: 373.49 ± 1.6 Å²

Sequence: LEKTIDDLEEK [_LEK(Malonyl)TIDDLEEK_]
- collision cross section (charge state: 2, modification: Malonyl): 405.85 ± 0.59 Å²

Sequence: ISALQGKLSK [_ISALQGK(Succinyl)LSK_]
- collision cross section [1]: 354.02 ± 1.3 Å²

Sequence: VTLEVGKVIQQGR [_VTLEVGK(hydroxyisobutyryl)VIQQGR_]
- collision cross section [12]: 414.48 ± 0.55 Å²
- collision cross section [13]: 486.66 ± 1.9 Å²

Sequence: ISALQGKLSK [_ISALQGK(Biotin)LSK_]
- collision cross section [23]: 376.95 ± 2.2 Å²

Sequence: SDDESSQKDIK [_SDDESSQK(Biotin)DIK_]
- collision cross section [23]: 393.46 Å²

Sequence: YEATSVQQK [_Y(Phospho (Y))EATSVQQK_]
- collision cross section [18]: 348.75 ± 0.066 Å²

Sequence: GFCFITYTDEEPVKK [_GFCFITYTDEEPVK(Acetyl (K))K_]
- collision cross section [14]: 451.75 ± 3.1 Å²

Sequence: GEVQVSDKER [_GEVQVSDK(GlyGly (K))ER_]
- collision cross section [19]: 370.72 ± 1.1 Å²
- collision cross section [20]: 432.88 ± 2.5 Å²

Sequence: DVNAAIAAIKTK [_DVNAAIAAIK(Formyl)TK_]
- collision cross section (charge state: 2, modification: Formyl): 377.34 ± 15 Å²

Sequence: SGFGKFER [_SGFGK(Acetyl (K))FER_]
- collision cross section [14]: 331.68 ± 1.9 Å²

Sequence: LGHYATQLQK [_LGHYAT(HexNAc (ST))QLQK_]
- collision cross section [17]: 388.93 ± 0.68 Å²
- collision cross section [16]: 446.62 ± 0.17 Å²

Sequence: IISSIEQKEENK [_IISSIEQK(Crotonyl)EENK_]
- collision cross section [10]: 407.53 ± 0.9 Å²

Sequence: ANLEKAQAELVGTADEATR [_ANLEK(Acetyl (K))AQAELVGTADEATR_]
- collision cross section [14]: 471.91 ± 3.1 Å²
- collision cross section [15]: 570.31 ± 0.74 Å²

Sequence: HSPTLPEPGGLRLELPLSR [_HSPTLPEPGGLR(Citrullination (R))LELPLSR_]
- collision cross section [21]: 513.82 ± 1.9 Å²

Sequence: GSLEKGSPEDK [_GSLEK(Acetyl (K))GSPEDK_]
- collision cross section [14]: 363.99 ± 0.16 Å²

Sequence: TGGTQTDLFTCGKCK [_TGGTQTDLFTCGK(Succinyl)CK_]
- collision cross section [1]: 437.09 Å²

Sequence: LDHLAEKFR [_LDHLAEK(Acetyl (K))FR_]
- collision cross section [14]: 371.59 ± 0.95 Å²
- collision cross section [15]: 438.53 ± 3.2 Å²

Sequence: FLQEFYQDDELGKK [_FLQEFYQDDELGK(Acetyl (K))K_]
- collision cross section [14]: 444.35 ± 1.6 Å²
- collision cross section [15]: 501.5 ± 0.084 Å²

Sequence: TTGFYSGFSEVAEKR [_TTGFYSGFSEVAEK(Succinyl)R_]
- collision cross section [1]: 441.9 ± 0.5 Å²
- collision cross section [2]: 512.39 ± 1.6 Å²

Sequence: ASNAAVKLAESK [_ASNAAVK(Butyryl)LAESK_]
- collision cross section [22]: 375.52 ± 1.2 Å²

Sequence: VYIASSSGSTAIKK [_VYIASSSGSTAIK(Gluratylation)K_]
- collision cross section [8]: 420.03 ± 1.5 Å²
- collision cross section [9]: 512.2 ± 1 Å²

Sequence: ITESVAETAQTIK [_ITESVAET(HexNAc (ST))AQTIK_]
- collision cross section [17]: 422.03 ± 0.75 Å²

Sequence: ILDLKTGTVK [_ILDLK(Trimethyl (K))TGTVK_]
- collision cross section [3]: 360.39 ± 1.1 Å²
